The source of these data is patent EP2586797A2 (Medtronic, Inc., dated 2013).

The target of assay [1] is T1, Abeta42 beta amyloid peptide (UniProt P05067 672-713).
T1 construct: domain: Abeta42 beta amyloid peptide; also called Aβ42; Aβ
The assay can be described thus: competition ELISA, purified antibody 0.003-16 ug/ml against biotinylated 6E10 (chimeric mouse 6E10) on coated beta amyloid, n=2.

The target in assay [2] is T1, Abeta42 beta amyloid peptide. The assay can be described thus: competition ELISA, purified antibody against biotinylated 6E10 (chimeric mouse 6E10) on coated beta amyloid; the reference row itself.
For assay [3] the target is unchanged. The assay can be described thus: competition ELISA, purified antibody against biotinylated 6E10 on coated beta amyloid; normalised to the row 'Mouse' (chimeric mouse 6E10); <1 improved.
Assay [4] shares this target. The assay can be described thus: competition ELISA, NS0 supernatant titrated against 0.25 ug/ml biotinylated mouse 6E10 (mouse MDT-2007) on coated beta amyloid; IC50 normalised to mouse 6E10 (=1; <1 improved).
Assay [5] shares this target. The assay can be described thus: competition ELISA, purified antibody on coated beta amyloid (Table 4), against the mouse reference.

T1 sequence (P05067 672-713 limits assumed): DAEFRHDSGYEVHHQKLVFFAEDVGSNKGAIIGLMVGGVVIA

B1: mouse 6E10 anti-Aβ antibody (antibody, V domains shown)
VH: EVQLQQSGAELVKPGASVKLSCTASGFNIKDTYIHWVKQRPEQGLEWIGRFDPVNVNTRYDSRFRGKATITSDASSNTAYLHLNSLTSEDTAVYYCSRSYYNGRRRFTYWGQGTLVTVSA
VL: DIVMTQSPSSLTVTAGEKVALTCKASQSLLSSGNQKNYLTWYQQKPGQPPKLLIYWASIRESGVPDRFTGSGSGTFFTLTISSVQAEDLAVYYCQNDYNYPFTFGSGTKLEIK
notes: Murine monoclonal from hybridoma 6E10 (Covance); also called 6E10 mouse antibody
The molecule B1 came in with a half-maximal inhibitory concentration (IC50) in assay [1] of 3.6 µg/mL. Moreover, the “Fold Difference (IC50 normalised to the reference)” value in assay [2] amounted to 1 fold.

B2: Composite human antibody variant VH4/VK1 (antibody, human IgG1, V domains shown)
VH: QVQLVQSGAEVKKPGASVKVSCTASGFNIKDTYIHWVRQARGQRLEWIGRFDPVNVNTRYDSRFRGRVTITSDASTNTAYMELSSLRSEDTAVYYCSRSYYNGRRRFTYWGQGTLVTVSS
VL: DIVMTQSPDSLTVSLGERATINCKASQSLLSSGNQKNYLTWYQQKPGQPPKLLIYWASIRESGVPDRFTGSGSGTFFTLTISSLQAEDVAVYYCQNDYNYPFTFGQGTKLEIK
notes: Human IgG1/kappa (pANT15/pANT13), NS0 cells; also called VH4/YK1
B2: the half-maximal inhibitory concentration (IC50) in assay [1] stood at 4.1 µg/mL. Besides, the “Fold Difference (IC50 normalised to the reference)” value in assay [3] was 1.14 fold. In assay [4], the “fold difference in IC50 relative to mouse 6E10” value was determined as 0.94 fold.

B3: Composite human antibody variant VH5/VK2 (antibody, human IgG1, V domains shown)
VH: QVQLVQSGAEVKKPGASVKVSCTASGFNIKDTYIHWVRQARGQRLEWIGRFDPVNVNTRYDSRFRGRVTITSDASTSTAYMELSSLRSEDTAVYYCSRSYYNGRRRFTYWGQGTLVTVSS
VL: DIVMTQSPSSLTASVGDRVTITCKASQSLLSSGNQKNYLTWYQQKPGQPPKLLIYWASIRESGVPDRFTGSGSGTFFTLTISSLQAEDVAVYYCQNDYNYPFTFGQGTKLEIK
notes: Human IgG1/kappa (pANT15/pANT13), NS0 cells
B3 showed a concentration for half-maximal inhibition (IC50) in assay [1] of 2.6 µg/mL. Further, the “Fold Difference (IC50 normalised to the reference)” value in assay [3] stood at 0.72 fold. Also, the “fold difference in IC50 relative to mouse 6E10” value in assay [4] stood at 0.72 fold.

B4: MDT-2007 (composite human antibody sequence variant VH4/VK2) (antibody, human IgG1, V domains shown)
VH: QVQLVQSGAEVKKPGASVKVSCTASGFNIKDTYIHWVRQARGQRLEWIGRFDPVNVNTRYDSRFRGRVTITSDASTNTAYMELSSLRSEDTAVYYCSRSYYNGRRRFTYWGQGTLVTVSS
VL: DIVMTQSPSSLTASVGDRVTITCKASQSLLSSGNQKNYLTWYQQKPGQPPKLLIYWASIRESGVPDRFTGSGSGTFFTLTISSLQAEDVAVYYCQNDYNYPFTFGQGTKLEIK
notes: as for B3
As to B4, the “fold increase in binding compared to the mouse reference” value in assay [5] amounted to 1.72 fold. In addition, the half-inhibitory concentration (IC50) in assay [1] was found to be 2.1 µg/mL. Besides, the “Fold Difference (IC50 normalised to the reference)” value in assay [3] amounted to 0.57 fold. The “fold difference in IC50 relative to mouse 6E10” value in assay [4] was 0.67 fold.

B5: Composite human antibody variant VH5/VK1 (antibody, human IgG1, V domains shown)
VH: QVQLVQSGAEVKKPGASVKVSCTASGFNIKDTYIHWVRQARGQRLEWIGRFDPVNVNTRYDSRFRGRVTITSDASTSTAYMELSSLRSEDTAVYYCSRSYYNGRRRFTYWGQGTLVTVSS
VL: DIVMTQSPDSLTVSLGERATINCKASQSLLSSGNQKNYLTWYQQKPGQPPKLLIYWASIRESGVPDRFTGSGSGTFFTLTISSLQAEDVAVYYCQNDYNYPFTFGQGTKLEIK
notes: Human IgG1/kappa (pANT15/pANT13), NS0 cells; also called VH5/YK1
In turn, B5 displayed a half-maximal inhibitory concentration (IC50) in assay [1] of 3.3 µg/mL. In addition, the “Fold Difference (IC50 normalised to the reference)” value in assay [3] was 0.91 fold. The “fold difference in IC50 relative to mouse 6E10” value in assay [4] is 0.8 fold.
